In paper PMC9692336:

Legend:
[1] = biological target: platelet glycoprotein receptor Ib (UniProt P07359)
[2] = biological target: platelet glycoprotein receptor Ib (UniProt P07359); remark: listed apart in the source

VWF:RCo activity in factor VIII-deficient plasmas after addition of purified recombinant factor VIII [1]: 4 fold | VWF:RCo activity (ristocetin co-factor assay, aggregation of fixed platelets) in factor VIII-deficient plasmas after addition of polyP65 (2.5 and 7.1 µM) [2]: 2 fold
Substance: von Willebrand factor in plasma (from UniProt P04275 764-2813) (natural protein)
